According to US20120207788A1 (BIOMAY, published 2012):

Target: serum IgE from grass pollen allergic patients
Assay: cell-based or functional assay

Row | Binder | CD203c expression on human basophils isolated from grass pollen allergic patients
1 | hybrid molecule B (other) MAVKQAYAATVATAPEVKYTVFETALKKAITAMSEAQKAAKPAAAATATATAAVGAATGAATAATGGYKVAEEVKVIPAGELQVIEKVDAAFKVAATAANAAPANDKFTVFEAAFNDAIKASTGGAYESYKFIPALEAIPKVPPGPNITATYGDKWLDAKSTWYGKPTGAGPKDNGGACGYKDVDKPPFSGMTGCGNTPIFKSAGELELQFRRVKCKYPEGTKVTFHVEKGSNPNYLALLVKYVNGDGDVVAVDIKEKGKDKWIELKESWGAIWRIDTPDKLHHHHHH | 10 fold
2 | hybrid molecule C (other) MGAASNKAFAEGLSGEPKGAAESSSKAALTSKLDAAYKLAYKTAEGATPEAKYDAYVATLSEALRIIAGTLEVHAVKPAADLGYGPATPAAPAAGYTPATPAAPAEAAPAGKATTEEQKLIEKINAGFKAALAAAAGVQPADKYRTFVATFSGRGCGSCFEIKCTKPEACSGEPVVVHITDDNEEPIAPYHFDLSGHAFGAMAKKGDEQKLRTGPFTVRYTTEGGTKTEAEDVIPEGWKADTSYESKHHHHHH | 10 fold

Next, values leading:

Row | CD203c expression on human basophils isolated from grass pollen allergic patients | Binder
3 | 10 fold | hybrid molecule P (other) MGAASNKAFAEGLSGEPKGAAESSSKAALTSKLDAAYKLAYKTAEGATPEAKYDAYVATLSEALRIIAGTLEVHAVKPAADLGYGPATPAAPAAGYTPATPAAPAEAAPAGKATTEEQKLIEKINAGFKAALAAAAGVQPADKYRTFVATFSGRGCGSCFEIKCTKPEACSGEPVVVHITDDNEEPIAPYHFDLSGHAFGAMAKKGDEQKLRTGPFTVRYTTEGGTKTEAEDVIPEGWKADTSYESKAEEVKVIPAGELQVIEKVDAAFKVAATAANAAPAAVKQAYAATVATAPEVKYTVFETALKKAITAMSEAQKAAKPAAAATATATAAVGAATGAATAATGGYKVNDKFTVFEAAFNDAIKASTGGAYESYKFIPALEAIPKVPPGPNITATYGDKWLDAKSTWYGKPTGASAGELELQFRRVKCKYPEGTKVTFHVEKGSNPNYLALLVKYVNGDGDVVAVDIKEKGKDKWIELKESWGAIWRIDTPDKLGPKDNGGACGYKDVDKPPFSGMTGCGNTPIFKHHHHHH
4 | 10 fold | hybrid molecule Q (other) MFRFLTEKGMKNVFDDVVPEKYTIGATYAPEEDEWVAMTKGEGGVWTFDSEEPLQGPFNADKYKTFEAAFTVSSKRNLADAVSKAPQLVPKLDEVYNAAYNAADHAAPEDKYEAFVLHFSEALRIIAGTPEVHAVKPGAVPKVTFTVEKGSNEKHLAVLVKYEGDTMAEVELREHGSHHHHHH
